Source: article PMC5707514

Molecular target: Aβ(M1-42) (UniProt P05067)
Assay: fibrils trapped on a 0.2 μm filter, tryptic digest and MALDI-TOF MS; 1:1 mixture of ^15N-Aβ42 and ^14N-Aβ40 monomers, 3 μM total, 5 μM ThT, 37 °C; samples taken at the first and second ThT plateau, fibrils washed with Milli-Q water

Aβ(M1-42), sequence (P05067 671-713): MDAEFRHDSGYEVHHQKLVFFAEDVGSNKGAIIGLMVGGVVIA

percent of Aβ40 contained in the fibrils at the first plateau: < 13%
Substance: Aβ(M1-40) (from UniProt P05067 672-711) (peptide)
